Data reported in patent US20260216242A1, “ALPP-SPECIFIC VARIANT ANTIGEN BINDING MOLECULES” (ALMAC DISCOVERY LIMITED, priority 2022, published 2026).
Changes are numbered by the printed parent chain.

B1: G03: ALPP targeting VHH domain, SEQ ID NO: 38 (protein)
VHH: QVQLVESGGGTAQAGGSLRLACAASGRSVTMGWLGWVPRAERDDLEFITWFNWGTYYANSVNGRFTISTDNADNTVYPQMNRLKPENPAVYYCASFTGYRPLINRLNDVSDCGHGALVAVSS
B2: B09: ALPP targeting VHH domain, SEQ ID NO: 21 (protein)
VHH: QVQLVESGGGSVQAGGSLRLSCAASGPSLSHYAMGWFRQAPGKEREFVAGISWGGGRTSYTDSVKGRFTISRDNAKNTVYLQMNNLKPEDTGVYYCAGRYGRGRNVEYEYDYWGQGTQVTVSS
B3: B11: ALPP targeting VHH domain, SEQ ID NO: 22 (protein)
VHH: B2 VHH with Q3H, H31N
B4: H09: ALPP targeting VHH domain, SEQ ID NO: 39 (protein)
VHH: B2 VHH with A14T, H31N, S59N, T61L, V79M, N85S, G92A, N105D
B5: H10: ALPP targeting VHH domain, SEQ ID NO: 40 (protein)
VHH: B2 VHH with A14T, H31N, S59N, T61L, V79M, N85S, T91A, G92A, N105D
B6: A08: ALPP targeting VHH domain, SEQ ID NO: 18 (protein)
VHH: QVQLVESGGGLVQAGESLRLACAASGTIFSGNAVGWYRQAPEKQREWVSSITDYGDTDYAEAVKGRFTISRDNAKNTVYLQMNSLKPEDTAVYYCYVYQRGESEEYWGQGTKVTVSS
B7: F12: ALPP targeting VHH domain, SEQ ID NO: 37 (protein)
VHH: QVQLVESGGGLVEAGGSLRLSCAVSGSALSDYNIGWFRQAPGKEREFVARKTWDGSSTKYDDSVKGRFTVSIDNAKNTAYLQMNSLKTEDTAVYYCAAGRYSRVRGWEYDYWGQRTQVTVSS

What was measured:
ALPP [1] = biological target: T1, ALPP (Homo sapiens, UniProt P05187); experiment: BLI binding kinetics, human ALPP immobilised on AR2G sensors (KD / KD apparent); conditions: for hALPP Ka / hALPP Kd: VHH domains
Description: Binding kinetics were determined using the Biolayer Interferometry (BLI) Octet K2 system (Sartorius). Human ALPP, ALPPL2, ALPL (each fused with a cysteine stabilised leucine zipper) and ALPI, (SEQ ID NO: 265, SEQ ID NO: 266 and SEQ ID NO: 267 and SEQ ID NO: 264 respectively) were immobilised in sodium acetate pH5 buffer to AR2G sensors using amine coupling. All assays were conducted in PBS with a plate temperature of 25° C. Ka (M^−1s^−1), Kd (s^−1) and KD (nM) values were determined using Octet Data Analysis High Throughput software (ForteBio) for Biolayer Interferometry.
(§1) Binding kinetics were determined using the Biolayer Interferometry (BLI) Octet K2 or R4 system (Sartorius). Human ALPP, ALPPL2 and ALPL all fused with a disulphide stabilised leucine zipper (SEQ ID NO: 265, SEQ ID NO: 266, and SEQ ID NO: 267) and ALPI His (SEQ ID NO: 264) were used in BLI experiments. For KD apparent measurements, the ALPP proteins were immobilised in sodium acetate pH5 buffer to AR2G sensors using amine coupling. To measure 1:1 interactions, AHC biosensors were used to immobilise Fc-fused proteins. All assays were conducted in HBS-EP with a plate temperature of 25° C. Ka (M^−1s^−1), Kd (s^−1) and KD (nM) values were determined using Octet Data Analysis High Throughput software (Sartorius) for Biolayer Interferometry.
as §1, with “NO:264)” for “NO: 264)”

ALPI His homodimer = biological target: T2, ALPI His homodimer (Homo sapiens, UniProt P09923); experiment: ELISA binding to ALPI; conditions: 500 ng purified VHH
T2 sequence (P09923 with tags, fused parts or gaps): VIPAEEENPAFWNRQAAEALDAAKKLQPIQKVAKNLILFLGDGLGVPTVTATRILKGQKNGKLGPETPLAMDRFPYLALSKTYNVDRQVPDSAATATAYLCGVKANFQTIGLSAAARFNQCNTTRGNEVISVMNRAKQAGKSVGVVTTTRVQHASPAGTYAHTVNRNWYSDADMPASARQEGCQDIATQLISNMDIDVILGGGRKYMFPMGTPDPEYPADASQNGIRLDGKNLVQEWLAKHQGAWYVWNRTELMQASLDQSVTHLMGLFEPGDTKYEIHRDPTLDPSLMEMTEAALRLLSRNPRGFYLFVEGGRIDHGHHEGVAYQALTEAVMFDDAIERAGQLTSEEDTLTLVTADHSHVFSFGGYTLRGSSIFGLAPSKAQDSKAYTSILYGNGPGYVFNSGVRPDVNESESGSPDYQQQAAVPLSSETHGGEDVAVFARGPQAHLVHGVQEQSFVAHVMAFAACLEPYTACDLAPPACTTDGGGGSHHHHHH
Description: ELISA was used to test the binding and specificity of the VHHs. ALPP CysHis (SEQ ID NO: 263), ALPI His homodimer (SEQ ID NO: 264) or BSA (Thermo Fisher) were coated onto plates and 500 ng of each purified VHH added. Anti-Llama—HRP antibody was used for detection.

[2] = Thermal stability (Protein Thermal Shift assay); format: physicochemical; conditions: VHH domains, first derivative analysis
Description: Thermal stability assays used Applied Biosystems StepOne Real Time PCR system with the Protein Thermal Shift™ dye kit (Thermo Fisher). The assay mix was set up so that the protein was at a final concentration of 20 µM in 20 μL. 5 μL of Thermal Shift™ buffer was added alongside 2.5 μL 8× Thermal Shift™ Dye. Assays were run using the StepOne software and data analysed using Protein Thermal Shift™ software. All data are from first derivative analysis.

ALPP [3] = biological target: T1, ALPP; experiment: Epitope binning by BLI competition assay; format: binding; conditions: BLI competition on immobilised ALPP
Description: To determine epitope cross reactivity BLI competition assays were conducted. AR2G sensors were used and ALPP immobilised as above. ALPP sensors were then dipped into a well containing a saturating concentration of the initial binder for ten minutes to get an association curve. The sensor was then dipped into a well containing the same concentration of initial binder plus 20 nM of a secondary binding.
An increase in the association curve was indicative that the second VHH bound to a distinct epitope from the initial binder. Monomers with identical CDR3s were grouped as likely to be in the same epitope bin and only one from each group used in the epitope binning experiment.

T1 sequence (P05187 with tags, fused parts or gaps): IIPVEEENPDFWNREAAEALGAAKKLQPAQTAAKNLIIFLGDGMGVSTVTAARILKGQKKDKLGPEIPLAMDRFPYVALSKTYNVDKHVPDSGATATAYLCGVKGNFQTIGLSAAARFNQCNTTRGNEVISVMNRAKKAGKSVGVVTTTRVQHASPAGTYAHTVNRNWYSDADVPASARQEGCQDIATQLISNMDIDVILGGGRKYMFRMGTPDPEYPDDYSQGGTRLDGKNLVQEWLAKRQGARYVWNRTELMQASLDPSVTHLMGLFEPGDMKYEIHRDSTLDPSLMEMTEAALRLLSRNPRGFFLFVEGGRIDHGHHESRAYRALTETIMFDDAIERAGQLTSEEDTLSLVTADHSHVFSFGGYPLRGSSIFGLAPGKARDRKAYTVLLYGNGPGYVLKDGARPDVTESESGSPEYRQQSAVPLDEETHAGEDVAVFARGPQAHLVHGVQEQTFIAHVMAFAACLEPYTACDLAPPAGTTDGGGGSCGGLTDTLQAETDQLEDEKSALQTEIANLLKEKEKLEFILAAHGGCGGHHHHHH

| Molecule | hALPP Ka (ALPP [1]) | hALPP Kd (ALPP [1]) | Kd (ALPP [1]; VHH domains (His-tagged monomers), PBS, 25° C., read-out: hALPP KD) | ELISA hALPI (ALPI His homodimer) | Tm [2] | epitope bin (ALPP [3]) |
| --- | --- | --- | --- | --- | --- | --- |
| B1 | 47400 M⁻¹ s⁻¹ | <1e-07 s⁻¹ | < 0.01 nM | No Binding | 74.0 °C | one |
| B2 | 237000 M⁻¹ s⁻¹ | <1e-07 s⁻¹ | – | No Binding | 77.1 °C | one |
| B3 | 213000 M⁻¹ s⁻¹ | 0.000017 s⁻¹ | – | No Binding | 77.4 °C | one |
| B4 | 58600 M⁻¹ s⁻¹ | <1e-07 s⁻¹ | – | No Binding | 68.8 °C | – |
| B5 | 45900 M⁻¹ s⁻¹ | 0.0000085 s⁻¹ | – | No Binding | 64.9 °C | – |
| B6 | 429000 M⁻¹ s⁻¹ | 0.000012 s⁻¹ | – | No Binding | 71.4 °C | – |
| B7 | 38600 M⁻¹ s⁻¹ | <1e-07 s⁻¹ | – | No Binding | 62.9 °C | – |
